This note sets out measurements from patent publication EP4574844A1 (Numab Therapeutics AG, dated 2025).

Like-named read-outs stand apart in the source and are kept apart here.

The target in assay [1] is T1, recombinant human CD47 (human, UniProt Q08722 19-139, limits assumed). In words: SPR, CD47 immobilised, scFv as analyte, 1:1 Langmuir.
Assay [2] concerns the target T2, human CD47 on the cell surface (human, UniProt Q08722 19-323). In words: cell-based or functional assay.
In assay [3] the target is T3, human PD-L1 on the cell surface (human, UniProt Q9NZQ7 19-290). In words: cell-based or functional assay.
For assay [4], the target named is T2, human CD47 on the cell surface. In words: cell-based or functional assay. The source holds these as a separate data set.
Assay [5] addresses T4, recombinant human PDL1 (human, UniProt Q9NZQ7 19-238, limits assumed).
T4 construct: SPR antigen; also called CD274; B7-H1
In words: SPR, antigen immobilised, antibody as analyte. (In SPR one partner is held on a chip, and binding of the other changes the refractive index at the surface.)

In assay [6] the target is T1, recombinant human CD47. As to the kind of experiment: SPR, antigen immobilised, antibody as analyte.
The target in assay [7] is T3, human PD-L1 on the cell surface. In words: cell-based or functional assay. This is another data set of the same source.
Assay [8] has as its target T4, recombinant human PDL1. As to the kind of experiment: SPR.
Assay [9] deals with T5, recombinant cynomolgus PDL1 (cynomolgus monkey, UniProt G7PSE7 19-238).
T5 construct: also called cynom; PDL1
T5 sequence (G7PSE7 entry or part of it): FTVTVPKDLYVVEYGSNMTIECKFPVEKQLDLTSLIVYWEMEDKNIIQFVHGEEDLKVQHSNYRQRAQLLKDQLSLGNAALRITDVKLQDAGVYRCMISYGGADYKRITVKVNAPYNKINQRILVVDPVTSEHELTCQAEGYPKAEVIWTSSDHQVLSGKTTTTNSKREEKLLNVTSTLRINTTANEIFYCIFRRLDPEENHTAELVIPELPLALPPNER
As to the kind of experiment: SPR.

The target in assay [10] is T6, human LILRB2 on the cell surface (human, UniProt Q8N423 22-597). As to the kind of experiment: cell-based or functional assay.
T6 sequence (Q8N423 22-597): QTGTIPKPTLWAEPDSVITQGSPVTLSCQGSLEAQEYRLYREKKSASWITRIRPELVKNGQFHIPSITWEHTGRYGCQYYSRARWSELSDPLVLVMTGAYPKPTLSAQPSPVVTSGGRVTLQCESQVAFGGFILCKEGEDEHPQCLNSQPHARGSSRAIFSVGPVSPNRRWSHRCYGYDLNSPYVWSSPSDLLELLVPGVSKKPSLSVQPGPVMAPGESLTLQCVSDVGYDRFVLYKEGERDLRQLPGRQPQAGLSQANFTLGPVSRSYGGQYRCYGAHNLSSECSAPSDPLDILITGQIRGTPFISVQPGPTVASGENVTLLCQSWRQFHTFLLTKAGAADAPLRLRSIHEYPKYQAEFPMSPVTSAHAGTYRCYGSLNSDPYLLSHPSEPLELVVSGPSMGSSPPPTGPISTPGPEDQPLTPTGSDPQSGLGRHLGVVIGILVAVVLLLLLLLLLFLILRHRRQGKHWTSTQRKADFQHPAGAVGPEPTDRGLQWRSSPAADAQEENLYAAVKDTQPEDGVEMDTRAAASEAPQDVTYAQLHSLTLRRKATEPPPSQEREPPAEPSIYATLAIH
The target of the next assay is T7, recombinant human LILRB2 (human, UniProt Q8N423 22-460, limits assumed).
T7 construct: also called ILT4
T7 sequence (Q8N423 22-460 limits assumed): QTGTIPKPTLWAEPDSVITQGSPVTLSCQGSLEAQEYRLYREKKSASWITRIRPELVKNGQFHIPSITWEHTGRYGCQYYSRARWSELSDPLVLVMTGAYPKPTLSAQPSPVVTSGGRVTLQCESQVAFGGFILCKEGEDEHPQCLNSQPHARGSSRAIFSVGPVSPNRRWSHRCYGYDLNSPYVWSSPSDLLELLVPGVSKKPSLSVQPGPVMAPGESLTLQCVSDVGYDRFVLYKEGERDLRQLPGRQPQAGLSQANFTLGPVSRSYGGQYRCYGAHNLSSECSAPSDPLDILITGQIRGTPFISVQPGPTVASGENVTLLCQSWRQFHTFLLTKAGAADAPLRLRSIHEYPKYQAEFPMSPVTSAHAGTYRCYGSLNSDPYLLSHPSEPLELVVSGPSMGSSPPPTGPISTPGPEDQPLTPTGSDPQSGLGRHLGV
As to the kind of experiment: SPR, antibody captured by anti-framework IgG, antigen as analyte (without avidity).

The target in assay [11] is T6, human LILRB2 on the cell surface. In words: cell-based or functional assay. This is another data set of the same source.
The target in assay [12] is T2, human CD47 on the cell surface. In words: cell-based or functional assay. The source holds these as a separate data set.
For assay [13] the target is unchanged. In words: cell-based or functional assay. The source holds these as a separate data set.

B1: PRO3703 (scFv)
scFv: DVQMTQSPSSLSASVGDRVTITCQASQSISSWVSWYQQKPGKPPKLLIYRGGYLESGVPSRFSASGSGTDFTLTISSLQPEDFATYYCQSTDSSTYGGAFGCGTKVTVLGGGGGSGGGGSGGGGSGGGGSQQVVESGGGLVQPGGSLRLSCAVSGIDLNSYAMTWVRQAPGKCLEWIGYIGSASSTYYASWASGRFTISKDNSKNTVYLQMNSLRAEDSAVYFCARGSTYINIWGQGTLVKVSS
notes: anti-CD47 scFv; also called 70-26-B04-sc03
For the molecule B1, in the assay with recombinant human CD47 [1], the Kd was determined as 11.9 nM; the koff (as a rule, a measure of how fast the partners let go of each other) stood at 0.029 s⁻¹; the kon (usually the rate constant with which the complex forms) came out at 2.44e+06 M⁻¹ s⁻¹.

B2: PRO5056 (antibody, human IgG1, kappa)
chain: DVQMTQSPSSLSASVGDRVTITCQASQSISSWVSWYQQKPGKPPKLLIYRGGYLESGVPSRFSASGSGTDFTLTISSLQPEDFATYYCQSTDSSTYGGAFGCGTKVTVLGGGGGSGGGGSGGGGSGGGGSQQVVESGGGLVQPGGSLRLSCAVSGIDLNSYAMTWVRQAPGKCLEWIGYIGSASSTYYASWASGRFTISKDNSKNTVYLQMNSLRAEDSAVYFCARGSTYINIWGQGTLVKVSSEPKSSDKTHTCPPCPAPELLGGPSVFLFPPKPKDTLMISRTPEVTCVVVDVSHEDPEVKFNWYVDGVEVHNAKTKPREEQYNSTYRVVSVLTVLHQDWLNGKEYKCKVSNKALPAPIEKTISKAKGQPREPQVYTLPPCREEMTKNQVSLSCAVKGFYPSDIAVEWESNGQPENNYKTTPPVLDSDGSFFLVSKLTVDKSRWQQGNVFSCSVMHEALHNHYTQKSLSLSPGKGGGGSGGGGSDIQMTQSPSSLSASVGDRVTITCQSSESVYSNNQLSWYQQKPGQPPKLLIYDASDLASGVPSRFSGSGSGTDFTLTISSLQPEDFATYYCAGGFSSSSDTAFGCGTKLTVLGGGGGSGGGGSGGGGSGGGGSEVQLVESGGGLVQPGGSLRLSCAASGFSLSSNAMGWVRQAPGKCLEYIGIISVGGFTYYASWAKGRFTISRDNSKNTVYLQMNSLRAEDSATYFCARDRHGGDSSGAFYLWGQGTLVKVSS
heavy: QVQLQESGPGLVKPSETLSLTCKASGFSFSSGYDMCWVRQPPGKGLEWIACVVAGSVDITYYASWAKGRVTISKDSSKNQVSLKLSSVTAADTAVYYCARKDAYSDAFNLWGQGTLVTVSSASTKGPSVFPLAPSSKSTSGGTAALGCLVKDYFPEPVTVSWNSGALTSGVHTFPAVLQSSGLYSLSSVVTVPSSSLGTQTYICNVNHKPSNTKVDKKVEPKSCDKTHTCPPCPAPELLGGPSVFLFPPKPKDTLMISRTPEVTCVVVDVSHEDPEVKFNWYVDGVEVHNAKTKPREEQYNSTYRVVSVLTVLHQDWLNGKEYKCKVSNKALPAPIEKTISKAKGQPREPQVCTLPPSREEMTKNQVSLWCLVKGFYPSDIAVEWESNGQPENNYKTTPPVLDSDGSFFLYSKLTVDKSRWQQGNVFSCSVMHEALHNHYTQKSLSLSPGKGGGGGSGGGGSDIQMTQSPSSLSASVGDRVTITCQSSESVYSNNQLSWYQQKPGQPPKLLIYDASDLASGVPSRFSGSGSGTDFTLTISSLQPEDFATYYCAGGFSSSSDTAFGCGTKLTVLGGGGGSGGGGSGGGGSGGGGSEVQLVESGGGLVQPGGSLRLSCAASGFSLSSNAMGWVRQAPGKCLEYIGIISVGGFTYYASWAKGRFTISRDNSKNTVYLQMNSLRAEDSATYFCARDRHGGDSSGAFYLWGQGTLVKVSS
light: DIQMTQSPSSLSASVGDRVTITCQASQSINDYLAWYQQKPGKAPKLLIYKGGTLASGVPSRFSGSGSGTDFTLTISSLQPEDFATYYCQQGYIITDIDNVFGQGTKVEIKRTVAAPSVFIFPPSDEQLKSGTASVVCLLNNFYPREAKVQWKVDNALQSGNSQESVTEQDSKDSTYSLSSTLTLSKADYEKHKVYACEVTHQGLSSPVTKSFNRGEC
notes: anti-PDL1 x CD47 x (hSA dummy domain); also called PRO5055 with dummy domain for LILRB2-BD
B2: the “CD47 driven EC50 [nM], phagocytosis of A375 cells” value in assay [2] was 76.9 nM. The “PD-L1 driven EC50 [nM], phagocytosis of H292 cells” value in assay [3] was 0.13 nM. Further, the “CD47 driven EC50 [nM], phagocytosis of H292 cells” value (“CD47 driven EC50 … of H292 cells” for short) in assay [4] was found to be 54.3 nM. In addition, in the assay with recombinant human PDL1 [5], the Kd was found to be 0.0105 nM, the koff was 2.13e-05 s⁻¹ and the kon came out at 2.02e+06 M⁻¹ s⁻¹. In the assay with recombinant human CD47 [6], the Kd was determined as 56.6 nM, the koff turned out to be 0.0249 s⁻¹ and the kon stood at 439000 M⁻¹ s⁻¹.

B3: PRO2230 (scFv)
scFv: DIQMTQSPASLSASVGDRVTITCQASQSIGTYLAWYQQKPGKPPKLLIYRAFILASGVPSRFSGSGSGTDFTLTISSLQPEDFATYYCQSNFYSDSTTIGPNAFGTGTKVTVLGGGGGSGGGGSGGGGSGGGGSEVQLVESGGGLVQPGGSLRLSCAASGFSFNSDYWIYWVRQAPGKGLEWIASIYGGSSGNTQYASWAQGRFTISRDNSKNTVYLQMNSLRAEDTAVYFCARGYVDYGGATDLWGQGTLVTVSS
notes: anti-PDL1 scFv; also called 37-20-B03-sc09.1
B3: in assay [7], the “PDL1/PD-1 EC50 [nM], NFAT reporter gene assay” value was determined as 0.93 nM and the “PDL1/PD-1 Max. inhibition (rel. to avelumab) [%]” value is 91.8%. In the assay with recombinant human PDL1 [8], the Kd came out at 0.015 nM, the koff came to 9.3e-05 s⁻¹ and the kon worked out at 6.3e+06 M⁻¹ s⁻¹. In [9], the Kd was 0.012 nM, the dissociation rate constant (koff) stood at 8.4e-05 s⁻¹ and the kon came out at 7e+06 M⁻¹ s⁻¹.

B4: PRO4672 (antibody)
chain 1: DVQMTQSPSSLSASVGDRVTITCQASQSISSWVSWYQQKPGKPPKLLIYRGGYLESGVPSRFSASGSGTDFTLTISSLQPEDFATYYCQSTDSSTYGGAFGCGTKVTVLGGGGGSGGGGSGGGGSGGGGSQQVVESGGGLVQPGGSLRLSCAVSGIDLNSYAMTWVRQAPGKCLEWIGYIGSASSTYYASWASGRFTISKDNSKNTVYLQMNSLRAEDSAVYFCARGSTYINIWGQGTLVKVSSEPKSSDKTHTCPPCPAPELLGGPSVFLFPPKPKDTLMISRTPEVTCVVVDVSHEDPEVKFNWYVDGVEVHNAKTKPREEQYNSTYRVVSVLTVLHQDWLNGKEYKCKVSNKALPAPIEKTISKAKGQPREPQVYTLPPCREEMTKNQVSLSCAVKGFYPSDIAVEWESNGQPENNYKTTPPVLDSDGSFFLVSKLTVDKSRWQQGNVFSCSVMHEALHNHYTQKSLSLSPGKGGGGSGGGGSDVQMTQSPSSLSASVGDRVTITCQASQSIGSNLAWYQQKPGKPPKLLIYKGGTLESGVPSRFSGSGSGTDFTLTISSLQPEDFATYYCQSTAGSSRSGNYGYVFGCGTKVTVLGGGGGSGGGGSGGGGSGGGGSQQLVESGGGLVQPGGSLRLSCAASGFSFTNNYYMCWVRQAPGKCLEWIACMLVGAWGNTYYASWANGRFTISKDNSKNTVYLQMNSLRAEDSAVYFCARARDYTWTLGGDPETSGFNLWGQGTLVKVSS
chain 2: not shown
notes: trispecific anti-PDL1 x CD47 x LILRB2, (scFv)2-Fc-(scFv)2, 37-20-B03-based PDL1-BD
For B4, in [10], the “CD86 EC50 [nM], re-polarization of M2 macrophages” value was determined as 0.079 nM; the “CD163 EC50 [nM], re-polarization of M2 macrophages” value came to 0.067 nM; the “CD206 EC50 [nM], re-polarization of M2 macrophages” value was determined as 0.12 nM. Besides, in the assay with recombinant human LILRB2, the Kd is 0.37 nM, the koff came out at 8.9e-05 s⁻¹ and the kon stood at 240000 M⁻¹ s⁻¹. In addition, in assay [11], the “IL-1β EC50 [nM], LPS-driven cytokine secretion” value is 0.096 nM; the “IL-6 EC50 [nM], LPS-driven cytokine secretion” value was found to be 0.078 nM; the “TNF-α EC50 [nM], LPS-driven cytokine secretion” value was 0.123 nM. Besides, the “CD47 driven EC50 [nM], phagocytosis of Nalm6 cells” value in [12] was determined as 15.3 nM. Further, in assay [3], the “PD-L1 driven EC50 [nM], phagocytosis of H292 cells” value amounted to 0.32 nM. Besides, in assay [4], the “CD47 driven EC50 … of H292 cells” value came to 8.32 nM and the “CD47 driven EC50 [nM], phagocytosis of RBCs” value was found to be 39.4 nM. Moreover, in the assay with recombinant human PDL1 [5], the Kd came out at 0.12 nM, the koff was determined as 0.000126 s⁻¹ and the kon was 1.05e+06 M⁻¹ s⁻¹. Besides, in the assay with recombinant human CD47 [6], the Kd is 57.2 nM, the koff turned out to be 0.0256 s⁻¹ and the kon worked out at 448000 M⁻¹ s⁻¹.

B5: PRO3851 (bispecific antibody, human IgG1, kappa, L234A L235A)
heavy 1: not shown
heavy 2: QVQLQESGGGLVQPGGSLRLSCAASAYTISRNSMGWFRQAPGKGLEGVAAIESDGSTSYSDSVKGRFTISLDNSKNTLYLEMNSLRAEDTAVYYCAAPKVGLGPRTALGHLAFMTLPALNYWGQGTLVTVSSGGGGSGGGGSGGGGSGGGGSQVQLQESGGGLVQPGGSLRLSCAASAYTISRNSMGWFRQAPGKGLEGVAAIESDGSTSYSDSVKGRFTISLDNSKNTLYLEMNSLRAEDTAVYYCAAPKVGLGPRTALGHLAFMTLPALNYWGQGTLVTVSSDKTHTCPPCPAPEAAGGPSVFLFPPKPKDTLMISRTPEVTCVVVDVSHEDPEVKFNWYVDGVEVHNAKTKPREEQYNSTYRVVSVLTVLHQDWLNGKEYKCKVSNKALPAPIEKTISKAKGQPREPQVCTLPPSRDELTKNQVSLSCAVKGFYPSDIAVEWESNGQPENNYKTTPPVLDSDGSFFLVSKLTVDKSRWQQGNVFSCSVMHEALHNHYTQKSLSLSPG
light: DIQMTQSPSSVSASVGDRVTITCRASQGISRWLAWYQQKPGKAPKLLIYAASSLQSGVPSRFSGSGSGTDFTLTISSLQPEDFATYYCQQTVSFPITFGGGTKVEIKRTVAAPSVFIFPPSDEQLKSGTASVVCLLNNFYPREAKVQWKVDNALQSGNSQESVTEQDSKDSTYSLSSTLTLSKADYEKHKVYACEVTHQGLSSPVTKSFNRGEC
In the case of B5, the “CD47 driven EC50 [nM], phagocytosis of A375 cells” value in [13] is 0.9 nM. Besides, the “CD47 driven EC50 [nM], phagocytosis of Nalm6 cells” value in assay [12] was determined as 0.99 nM. Further, in [4], the “CD47 driven EC50 … of H292 cells” value amounted to 1.82 nM and the “CD47 driven EC50 [nM], phagocytosis of RBCs” value came to 3 nM.
